According to patent US20090311237A1, “Combination therapy using a soluble hyaluronidase and a bisphosphonate” (priority 2008, published 2009):

What was measured:
[1] = system: Sprague Dawley rats; assay: Injection site reactions (gross ISR incidence, lesion area) after intradermal injection of zoledronic acid with or without rHuPH20; type: in vivo, rat; conditions: for shift of half maximal effect (EC50) of ZA concentration vs lesion area curve: with vs without 10,000 U/mL rHuPH20
Protocol: A rodent model of local injection site injury caused by ZA injection was employed for the study. […] Injection into the dermis facilitates external visualization and assessment of the irritant.
Nine to ten week old female Sprague Dawley rats, having approximate body weight of 200-250 grams, were employed for the study. One day prior to injection, rats were shaved and hair on the back and flank area were removed by Nair® cream (exposure less than 1 min to depilation cream) followed by deep wash with warm tap water. On the day of dosing, all rats were injected intradermally in flank area (one or two injection spots per side), with 0.1 or 0.2 mL as indicated of zoledronic acid solution, with or without rHuPH20, at each corresponding concentration as shown in study design table. Injection site appearance was observed and quantified by blind assessment each day following the injection until the end of the study, at which time animals were sacrificed and the skin around the dosing area as well as a part of the skin that was not effected by the dosing were collected and fixed in 10% neutral buffered formalin (NBF) and further embedded in paraffin, 5 μm sections were cut for H&E stain and histopathology evaluation.
Lesion area was calculated by the following formula: W×L×¼π. Quantitative results were analyzed using one-way analysis of variance (ANOVA) method, followed by Dunnett's comparison method (Prizm 4 program). The probability values of less than 0.05 (two-tailed) were used as the critical level of significance for all tests. Groups with a sample size of two were excluded from analysis. If the sample size was 2 for the control group, there were no statistical analyses at that interval for any of the groups. Histopathologic findings were characterized by semi-quantitative analysis of necrosis and infiltration in the skin tissue. The incidences of each finding were compared with control groups by Chi-square test.
Prior to ZA intradermal injection, rats were randomized by body weight into 7 groups of 1 or 2 rats per group (Table 2). Rats were injected with either 0.1 mL or 0.2 mL of each corresponding concentration intradermally at two separate locations on each shaved flank side for a total of 4 injections for each animal. Injection sites were observed daily post-injection for four days. Pictures of injection site reaction (ISR) area were captured by digital camera and lesion area was scored for induration, erythema, or ulceration. Two perpendicular diameters (width & length) of injection site lesion were measured by microcaliper. The lesion area was defined as the area bounded by the outer edge of the erythemic zone. Upon completion of the study, the animals were euthanized and skin at the injection site and from an untreated area of the back of the rat were excised, mounted flat onto a piece of cardboard, and placed in 10% NBF.
A series of experiments were conducted in which various dosing concentrations of rHuPH20 were tested for the ability to reduce acute injection site lesions. Prior to ZA intra-dermal injection, rats were randomized by body weight into 11 groups of 2 rats per group. Rats were injected intradermally with 0.1 mL of each co-formulated solution as shown in Table 5 and observed daily with ISR development assessed as in Section B. Four days after injection, rats were sacrificed and the skin at the injection site as well as untreated skin from the back was excised, mounted flat onto a piece of cardboard, and placed in 10% NBF.
Prior to ZA intra-dermal injection, rats were randomized by body weight into 6 groups of 3 rats per group (Table 6). Rats were intradermally injected with 0.1 mL of each corresponding co-formulated solution at two separate locations, two on each shaved flank side, for a total of 4 injections for each animal. Injection sites were observed daily with ISR development assessed as in Section B for 6 days. […]

[2] = Hyaluronidase activity microturbidity (turbidometric) assay; type: biochemical; conditions: purified soluble rHuPH20 (Gen1, 5 L bioreactor); USP reference standard
Protocol: Hyaluronidase activity can be assessed using methods well known in the art. In one example, activity is measured using a microturbidity assay. This is based on the formation of an insoluble precipitate when hyaluronic acid binds with serum albumin. The activity is measured by incubating hyaluronidase with sodium hyaluronate (hyaluronic acid) for a set period of time (e.g. 10 minutes) and then precipitating the undigested sodium hyaluronate with the addition of acidified serum albumin. The turbidity of the resulting sample is measured at 640 nm after an additional development period. […] Following incubation with hyaluronidase, the residual biotinylated hyaluronic acid substrate is detected using an avidin-peroxidase reaction, and compared to that obtained following reaction with hyaluronidase standards of known activity.
Hyaluronidase activity of soluble rHuPH20 in samples such as cell cultures, purification fractions and purified solutions was determined using a turbidometric assay, which based on the formation of an insoluble precipitate when hyaluronic acid binds with serum albumin. The activity is measured by incubating soluble rHuPH20 with sodium hyaluronate (hyaluronic acid) for a set period of time (10 minutes) and then precipitating the undigested sodium hyaluronate with the addition of acidified serum albumin. […]

B1: rHuPH20: soluble form of human PH20 hyaluronidase recombinantly expressed in Chinese Hamster Ovary (CHO) cells (protein, listed as Homo sapiens)
chain: LNFRAPPVIPNVPFLWAWNAPSEFCLGKFDEPLDMSLFSFIGSPRINATGQGVTIFYVDRLGYYPYIDSITGVTVNGGIPQKISLQDHLDKAKKDITFYMPVDNLGMAVIDWEEWRPTWARNWKPKDVYKNRSIELVQQQNVQLSLTEATEKAKQEFEKAGKDFLVETIKLGKLLRPNHLWGYYLFPDCYNHHYKKPGYNGSCFNVEIKRNDDLSWLWNESTALYPSIYLNTQQSPVAATLYVRNRVREAIRVSKIPDAKSPLPVFAYTRIVFTDQVLKFLSQDELVYTFGETVALGASGIVIWGTLSIMRSMKSCLLLDNYMETILNPYIINVTLAAKMCSQVLCQEQGVCIRKNWNSSDYLHLNPDNFAIQLEKGGKFTVRGKPTLEDLEQFSEKFYCSCYSTLSCKEKADVKDTDAVDVCIADGVCIDAFLKPPMETEEPQIFY
modifications: soluble rHuPH20 1-447
notes: soluble form of human PH20 hyaluronidase recombinantly expressed in Chinese Hamster Ovary (CHO) cells
rHuPH20 concentration with maximal effect on ISR formation ([1]; rat ID model, preliminary experiments): 10,000 U/mL
suppression of injection site lesion formation ([1]; rat ID, 10,000 U/mL rHuPH20 co-formulated with ZA up to 0.05 mg/mL): complete suppression
threshold of rHuPH20 in lesion area reduction ([1]; rat ID, all ZA concentrations tested (0.05 to 0.4 mg/ml)): 100 U/mL
rHuPH20 concentration at which maximal activity was reached ([1]; rat ID, regardless of ZA concentration (0.05 to 0.4 mg/ml)): 1000 U/mL
shift of half maximal effect (EC50) of ZA concentration vs lesion area curve ([1]; rat ID, day 2): approximately 2.4 fold
shift of half maximal effect (EC50) of ZA concentration vs lesion area curve ([1]; rat ID, day 3): ~3.3 fold
shift of half maximal effect (EC50) of ZA concentration vs lesion area curve ([1]; rat ID, day 4): ~5.7 fold
specific activity [2]: > 65,000 USP Units/mg protein
